Experimental data from publication PMC4167697.
Values joined by “and” are separate entries in the source; they are usually repeats but may differ in a detail not shown here. Equal values may be shown once.

Assays:
protein G B1 [1] = experiment: BLI; kinetic titration series; GB1 amine-coupled on AR2G sensors, IgG as analyte at 0.03125-0.5 µM in turn on one sensor; PBS with 0.05% Polysorbat 20, 25°C, 1000 rpm; each sensor pair fitted separately, 1:1 kinetic titration series model with RI-term
protein G B1 [2] = experiment: as above; remark: listed apart in the source
protein G B1 [3] = experiment: BLI; parallel sensor kinetics, fitted without RI term (Figure S3A); GB1 on AR2G sensors, IgG as analyte
protein G B1 [4] = experiment: BLI; kinetic titration series; GB1 amine-coupled on AR2G sensors, IgG as analyte at 0.03125-0.5 µM in turn on one sensor; PBS with 0.05% Polysorbat 20, 25°C, 1000 rpm; each sensor pair fitted separately, 1:1 kinetic titration series model with RI-term; remark: listed apart in the source
protein G B1 [5] = experiment: as above; remark: listed apart in the source
protein G B1 [6] = experiment: BLI; parallel sensor kinetics; GB1 amine-coupled on AR2G sensors, IgG as analyte at 0.03125-0.5 µM on five sensors in parallel; PBS with 0.05% Polysorbat 20, 25°C, 1000 rpm; global 1:1 fit with RI-term
protein G B1 [7] = experiment: BLI; kinetic titration series; GB1 amine-coupled on AR2G sensors, IgG as analyte at 0.03125-0.5 µM in turn on one sensor; PBS with 0.05% Polysorbat 20, 25°C, 1000 rpm; each sensor pair fitted separately, 1:1 kinetic titration series model with RI-term; remark: listed apart in the source
protein G B1 [8] = experiment: as above; remark: listed apart in the source
protein G B1 [9] = experiment: BLI; kinetic titration series, fitted without RI term (Figure S3B); GB1 on AR2G sensors, IgG as analyte
protein G B1 [10] = experiment: BLI; kinetic titration series; GB1 amine-coupled on AR2G sensors, IgG as analyte at 0.03125-0.5 µM in turn on one sensor; PBS with 0.05% Polysorbat 20, 25°C, 1000 rpm; each sensor pair fitted separately, 1:1 kinetic titration series model with RI-term; remark: listed apart in the source
protein G B1 [11] = experiment: BLI; parallel sensor kinetics; GB1 amine-coupled on AR2G sensors, IgG as analyte at 0.03125-0.5 µM, one sensor for each concentration; PBS with 0.05% Polysorbat 20, 25°C, 1000 rpm; global 1:1 binding model with RI-term; two measurements (#1, #2)
protein G B1 [12] = experiment: BLI; kinetic titration series; GB1 amine-coupled on AR2G sensors, IgG as analyte at 0.03125-0.5 µM in sequence on one sensor; PBS with 0.05% Polysorbat 20, 25°C, 1000 rpm; 1:1 kinetic titration series model with RI-term; mean of 7 replicates

“rabbit IgG (ID: ABIN376828; Antibodies-Online) (antibody)” was tested. Which Kd (protein G B1 [1]) did it give?
Its Kd is 0.164 µM.

What about the koff (protein G B1 [1]) of the same substance?
The koff was 0.00485 s⁻¹.

And the kon (protein G B1 [1])?
The kon was 29700 M⁻¹ s⁻¹.

What about the Kd (protein G B1 [2]) of the same substance?
The Kd was 0.166 µM.

And the koff (protein G B1 [2])?
The koff was 0.00476 s⁻¹.

What about the kon (protein G B1 [2]) of the same substance?
Its kon is 28700 M⁻¹ s⁻¹.

What about the Kd (protein G B1 [3]) of the same substance?
The Kd was 0.186 µM.

What about the koff (protein G B1 [3]) of the same substance?
Its koff is 0.00317 s⁻¹.

What about the kon (protein G B1 [3]) of the same substance?
Its kon is 17000 M⁻¹ s⁻¹.

And the Kd (protein G B1 [4])?
Its Kd is 0.254 µM.

What about the koff (protein G B1 [4]) of the same substance?
The koff was 0.00467 s⁻¹.

What about the kon (protein G B1 [4]) of the same substance?
The kon was 18400 M⁻¹ s⁻¹.

And the Kd (protein G B1 [5])?
The Kd was 0.0877 µM.

And the koff (protein G B1 [5])?
The koff was 0.00601 s⁻¹.

What about the kon (protein G B1 [5]) of the same substance?
The kon was 68500 M⁻¹ s⁻¹.

And the koff (protein G B1 [6])?
Its koff is 0.00702 s⁻¹.

And the kon (protein G B1 [6])?
Its kon is 45100 M⁻¹ s⁻¹.

What about the Kd (protein G B1 [7]) of the same substance?
The Kd was 0.266 µM.

What about the koff (protein G B1 [7]) of the same substance?
The koff was 0.00606 s⁻¹.

What about the kon (protein G B1 [7]) of the same substance?
Its kon is 22800 M⁻¹ s⁻¹.

And the Kd (protein G B1 [8])?
The Kd was 0.0504 µM.

What about the koff (protein G B1 [8]) of the same substance?
The koff was 0.0016 s⁻¹.

What about the kon (protein G B1 [8]) of the same substance?
Its kon is 31800 M⁻¹ s⁻¹.

And the Kd (protein G B1 [9])?
The Kd was 0.107 µM.

What about the koff (protein G B1 [9]) of the same substance?
Its koff is 0.00185 s⁻¹.

What about the kon (protein G B1 [9]) of the same substance?
The kon was 17300 M⁻¹ s⁻¹.

What about the Kd (protein G B1 [10]) of the same substance?
The Kd was 0.124 µM.

What about the koff (protein G B1 [10]) of the same substance?
The koff was 0.00551 s⁻¹.

And the kon (protein G B1 [10])?
Its kon is 44300 M⁻¹ s⁻¹.

What does the source list for rabbit immunoglobulin G (antibody)?
Kd (protein G B1 [11]): 0.156 µM and 0.253 µM; Kd (protein G B1 [12]): 0.159 µM
